Assay results taken from publication PMC3971405, “Molecular basis for the fold organization and sarcomeric targeting of the muscle atrogin MuRF1” (Open Biology, 2014).

Columns and labels:
[1] = biological target: the molecule itself; test: SEC-MALS; SEC-MALLS, Superdex 75 10/300 GL, 20 mM Tris pH 8.0, 50 mM NaCl; 1 ml injected at 1.5 mg/ml
[2] = biological target: the molecule itself; test: crystal structure; crystals grown at 20°C in 35% MPD, 0.1 M sodium acetate pH 4.5, 20% glycerol, 20 mM NaF; four chains in the asymmetric unit; 2.1 Å
[3] = biological target: the molecule itself; test: SEC-MALS; SEC-MALLS, Superdex 200 10/300, 20 mM Tris pH 8.0, 100 mM NaCl; injected at 0.7 mg/ml

B1: MuRF1^CC (coiled-coil-prone segment of human MuRF1, residues 214-271) (domain or fragment)
chain: GAMDTLYAILDEKKSELLQRITQEQEKKLSFIEALIQQYQEQLDKSTKLVETAIQSLDEPG
notes: MuRF1 (E3 ubiquitin ligase, TRIM family), human, UniProtKB Q969Q1, residues 214-271 (D214 to G271); Cloned into pETM-11 (His6-tag and TEV site N-terminal); also called CC^214-271; MuRF1 CC segment; not shown: His6, N-terminal, cleaved
- stoichiometry N [1]: ~2
- stoichiometry N [2]: 4

B2: MuRF1^B2|CC|COS (B2 box, helix H1 and COS-box of MuRF1, residues 114-327, C298S) (domain or fragment)
chain: LQKGSHPMCKEHEDEKINIYCLTCEVPTCSMCKVFGIHKACEVAPLQSVFQGQKTELNNCISMLVAGNDRVQTIITQLEDSRRVTKENSHQVKEELSQKFDTLYAILDEKKSELLQRITQEQEKKLSFIEALIQQYQEQLDKSTKLVETAIQSLDEPGGATFLLTAKQLIKSIVEASKGSQLGKTEQGFENMDFFTLDLEHIADALRAIDFGTD
- stoichiometry N [3]: 2
